Numbering of substitutions follows the chain as printed. Each block holds one binder with its values, some of them ahead of it.
Target: T1, MET928 (cMET protein derived from construct 25-928) (human, UniProt P08581 25-928)
T1 construct: MET ectodomain, residues 1-24 are the leader; produced in Lec 8 cells; background text says the ectodomain is furin-cleaved into alpha (25-307) and beta chains; biotinylated form used in selections; also called MET928 extracellular domain; Met extracellular domain
Assay: ELISA, soluble scFv

T1 sequence (P08581 25-928): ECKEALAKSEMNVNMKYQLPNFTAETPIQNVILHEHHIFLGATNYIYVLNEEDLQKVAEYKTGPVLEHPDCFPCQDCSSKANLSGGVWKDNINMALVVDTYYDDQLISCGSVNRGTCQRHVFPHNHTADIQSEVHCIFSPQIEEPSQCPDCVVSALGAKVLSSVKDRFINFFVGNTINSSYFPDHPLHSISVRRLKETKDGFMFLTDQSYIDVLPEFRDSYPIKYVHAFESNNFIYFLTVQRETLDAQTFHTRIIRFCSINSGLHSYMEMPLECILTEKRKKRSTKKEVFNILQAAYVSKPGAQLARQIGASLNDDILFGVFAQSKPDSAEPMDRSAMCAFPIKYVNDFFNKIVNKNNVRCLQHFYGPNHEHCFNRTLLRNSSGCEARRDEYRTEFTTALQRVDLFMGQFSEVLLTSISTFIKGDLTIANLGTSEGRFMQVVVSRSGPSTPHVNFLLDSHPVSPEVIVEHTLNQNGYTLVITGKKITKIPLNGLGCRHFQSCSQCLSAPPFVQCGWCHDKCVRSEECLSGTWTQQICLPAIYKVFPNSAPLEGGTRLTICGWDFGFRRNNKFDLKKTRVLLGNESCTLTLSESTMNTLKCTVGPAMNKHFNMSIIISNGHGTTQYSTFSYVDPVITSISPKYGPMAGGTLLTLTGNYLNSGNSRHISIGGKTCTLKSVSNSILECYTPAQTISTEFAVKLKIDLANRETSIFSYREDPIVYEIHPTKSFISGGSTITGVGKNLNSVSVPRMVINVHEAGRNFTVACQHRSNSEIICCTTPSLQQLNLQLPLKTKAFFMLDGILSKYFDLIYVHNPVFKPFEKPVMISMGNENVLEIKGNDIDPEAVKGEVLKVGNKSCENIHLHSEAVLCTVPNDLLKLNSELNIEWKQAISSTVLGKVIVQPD

binding result: binds
B1: 109_G10 (scFv)
scFv: QMQLVQSGAEVKKPGAPVKVSCKVSGYTFTDYYMHWVQQAPGKGLEWMGLVDPEDGETIYAEKFQGRVTITADTSTDTAYMELSSLRSEDTAVYYCATDATTPYWFPRVWGQGTLVTVSSLEGGGGSGGGGSGGGASDIQMTQSPSSLSASVGDRVTITCQASQDISNYLNWYQQKPGRAPKVLIYDASNLETGVPSRFSGSGSGTEFTLTISNLRPDDFATYYCQQGDSFPLTFGGGTKVEIK
notes: not shown: 6xHis/tri-FLAG tags

binding result: binds
B2: 111_C5 (scFv)
scFv: B1 scFv with R108K
notes: as for B1

binding result: binds
B3: 111_C9 (scFv)
scFv: B1 scFv with F106G, P107M, R108M, V109A
notes: as for B1

binding result: binds
B4: 111_E10 (scFv)
scFv: B1 scFv with F106Y, R108Y, V109A
notes: as for B1

binding result: binds
B5: 112_F1 (scFv)
scFv: B1 scFv with F106G, P107M, R108A, V109R
notes: as for B1

binding result: binds
B6: 111_D2 (scFv)
scFv: B1 scFv with R108W, V109I
notes: as for B1

binding result: binds
B7: 111_C3 (scFv)
scFv: B1 scFv with F106G, P107M, R108Q, V109G
notes: as for B1

binding result: binds
B8: 111_C8 (scFv)
scFv: B1 scFv with R108V
notes: as for B1

binding result: binds
B9: 109_H9 (scFv)
scFv: B1 scFv with F106G, P107M, R108T, V109K
notes: as for B1

binding result: binds
B10: 111_D4 (scFv)
scFv: B1 scFv with F106G, P107M, R108W
notes: as for B1

binding result: binds
B11: 110_A5 (scFv)
scFv: B1 scFv with F106Y, R108F
notes: as for B1

binding result: binds
B12: 110_B9 (scFv)
scFv: B1 scFv with F106S, R108I, V109W
notes: as for B1

binding result: binds
B13: 112_G5 (scFv)
scFv: B1 scFv with F106G, P107M, V109S
notes: as for B1

binding result: binds
B14: 109_H5 (scFv)
scFv: B1 scFv with F106G, P107A, R108Q, V109E
notes: as for B1

binding result: binds
B15: 111_D1 (scFv)
scFv: B1 scFv with F106G, P107M, R108D, V109E
notes: as for B1

binding result: binds
B16: 112_G4 (scFv)
scFv: B1 scFv with F106G, P107A, R108Q, V109S
notes: as for B1

binding result: binds
B17: 110_B5 (scFv)
scFv: B1 scFv with F106G, P107M, R108M, V109S
notes: as for B1

binding result: binds
B18: 110_B8 (scFv)
scFv: B1 scFv with F106G, P107M, R108M, V109L
notes: as for B1

binding result: binds
B19: 109_H6 (scFv)
scFv: B1 scFv with V109T
notes: as for B1

binding result: binds
B20: 111_E6 (scFv)
scFv: B1 scFv with F106G, P107M, R108A
notes: as for B1

binding result: binds
B21: 110_A2 (scFv)
scFv: B1 scFv with F106G, P107M, R108S, V109T
notes: as for B1

binding result: binds
B22: 111_E3 (scFv)
scFv: B1 scFv with R108V, V109E
notes: as for B1

binding result: binds
B23: 110_A3 (scFv)
scFv: B1 scFv with F106G, P107V, R108Q
notes: as for B1

binding result: binds
B24: 109_G11 (scFv)
scFv: B1 scFv with F106W, P107T, R108A, V109N
notes: as for B1

binding result: binds
B25: 111_E4 (scFv)
scFv: B1 scFv with F106G, P107I, R108E
notes: as for B1

binding result: binds
B26: 112_F12 (scFv)
scFv: B1 scFv with F106G, P107M, R108Q, V109W
notes: as for B1

binding result: binds
B27: 111_C12 (scFv)
scFv: B1 scFv with V109Y
notes: as for B1

binding result: binds
B28: 109_H8 (scFv)
scFv: B1 scFv with V109S
notes: as for B1

binding result: binds
B29: 109_H3 (scFv)
scFv: B1 scFv with F106G, P107M, R108Q, V109Q
notes: as for B1

binding result: binds
B30: 111_D3 (scFv)
scFv: B1 scFv with F106G, P107A, R108A, V109L
notes: as for B1

binding result: binds
B31: 110_A9 (scFv)
scFv: B1 scFv with F106G, P107M, R108A, V109G
notes: as for B1

binding result: binds
B32: 109_H7 (scFv)
scFv: B1 scFv with V109W
notes: as for B1

binding result: binds
B33: 111_E12 (scFv)
scFv: B1 scFv with F106S, R108W
notes: as for B1

binding result: binds
B34: 111_C10 (scFv)
scFv: B1 scFv with F106T, R108E, V109I
notes: as for B1

binding result: binds
B35: 111_E11 (scFv)
scFv: B1 scFv with F106G, P107M, V109E
notes: as for B1

binding result: binds
B36: 112_F11 (scFv)
scFv: B1 scFv with F106G, P107M, R108M, V109Q
notes: as for B1

binding result: binds
B37: 111_D8 (scFv)
scFv: B1 scFv with F106G, P107M, R108S, V109W
notes: as for B1

binding result: binds
B38: 111_D5 (scFv)
scFv: B1 scFv with R108A
notes: as for B1

binding result: binds
B39: 111_B12 (scFv)
scFv: B1 scFv with F106G, P107A, R108Q, V109A
notes: as for B1

binding result: binds
B40: 109_H1 (scFv)
scFv: B1 scFv with F106G, P107V, R108Q, V109K
notes: as for B1

binding result: binds
B41: 111_C1 (scFv)
scFv: B1 scFv with F106S, R108W, V109A
notes: as for B1

binding result: binds
B42: 110_B3 (scFv)
scFv: B1 scFv with A100M, T101E, T102L, P103N, W105Y, F106G, P107M, R108D
notes: as for B1

binding result: binds
B43: 109_G12 (scFv)
scFv: B1 scFv with F106G, P107M, R108A, V109A
notes: as for B1

binding result: binds
B44: 111_D7 (scFv)
scFv: B1 scFv with R108Y, V109A
notes: as for B1

binding result: binds
B45: 109_H11 (scFv)
scFv: B1 scFv with F106G, P107M, R108A, V109Q
notes: as for B1

binding result: binds
B46: 112_F8 (scFv)
scFv: B1 scFv with F106T, R108F, V109L
notes: as for B1

binding result: binds
B47: 111_C6 (scFv)
scFv: B1 scFv with R108Q, V109H
notes: as for B1

binding result: binds
B48: 112_G3 (scFv)
scFv: B1 scFv with F106G, P107M, R108S, V109A
notes: as for B1

binding result: binds
B49: 112_G6 (scFv)
scFv: B1 scFv with R108F
notes: as for B1

binding result: binds
B50: 112_F4 (scFv)
scFv: B1 scFv with F106G, P107M, R108A, V109D
notes: as for B1

binding result: binds
B51: 110_A8 (scFv)
scFv: B1 scFv with F106C, P107M, R108A, V109I
notes: as for B1

binding result: binds
B52: 111_E8 (scFv)
scFv: B1 scFv with R108Y, V109R
notes: as for B1

binding result: binds
B53: 110_B7 (scFv)
scFv: B1 scFv with A100G, T101L, T102W, P103M, W105Y, F106G, P107M, R108D
notes: as for B1

binding result: binds
B54: 111_E7 (scFv)
scFv: B1 scFv with F106G, P107M, R108M, V109M
notes: as for B1

binding result: binds
B55: 111_D11 (scFv)
scFv: B1 scFv with F106G, P107M, R108M, V109R
notes: as for B1

binding result: binds
B56: 110_B6 (scFv)
scFv: B1 scFv with A100T, T101D, T102L, P103K, W105Y, F106G, P107M, R108D
notes: as for B1

binding result: binds
B57: 112_G7 (scFv)
scFv: B1 scFv with R108Q, V109T
notes: as for B1

binding result: binds
B58: 111_E5 (scFv)
scFv: B1 scFv with F106G, P107M, R108C, V109E
notes: as for B1
